Laboratory results published in patent US20230365696A1 (SYNTHEKINE, published 2023).

T1: extracellular domain of hIFNgR1 (human, UniProt P15260 18-245)
T1 construct: also called hIFNgR1 ECD; human IFNgR1
T1 sequence: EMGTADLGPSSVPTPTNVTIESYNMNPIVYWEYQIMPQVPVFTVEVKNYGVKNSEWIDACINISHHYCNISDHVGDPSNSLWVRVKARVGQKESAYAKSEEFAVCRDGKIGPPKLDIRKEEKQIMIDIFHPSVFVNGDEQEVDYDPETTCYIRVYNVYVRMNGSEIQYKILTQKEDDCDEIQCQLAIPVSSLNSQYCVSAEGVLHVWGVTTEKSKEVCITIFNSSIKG

T2: extracellular domain of mIFNgR1 (mouse, UniProt P15261 26-254)
T2 construct: also called mIFNgR1 ECD; mouse IFNgR1
T2 sequence: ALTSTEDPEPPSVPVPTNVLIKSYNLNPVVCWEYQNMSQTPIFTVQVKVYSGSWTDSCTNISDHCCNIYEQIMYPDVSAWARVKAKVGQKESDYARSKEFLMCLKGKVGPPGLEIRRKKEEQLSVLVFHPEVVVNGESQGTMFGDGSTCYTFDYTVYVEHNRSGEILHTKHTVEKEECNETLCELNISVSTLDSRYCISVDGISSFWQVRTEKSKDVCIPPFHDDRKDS

B1: DR907 (VHH)
VHH: EVQLVESGGGLVQAGGSLRLSCAASGRTFSNYAMGWFRQAPGNEREFVAAINWNIGSTYYADSVKGRFTISRDNAKNTVYLQMNSLKPEDTAVYYCGAVWPTGRLRVDSEYDYWGQGTQVTVSS
notes: also called hIFNgR1 VHH
B2: DR909 (VHH)
VHH: EVQLVESGGGLVQAGGSLRLSCAASGRTFGTSFGALSMGWFRQAPGKEREFVAAITRNTGRTFYADSVKDRFTISRDNAKNTASLQMNSLEPEDTAVYICAATNSYDDLRRSYAYNYWGQGTQVTVSS
notes: also called hIFNgR1 VHH
B3: DR911 (VHH)
VHH: EVQLVESGGALVQAGGSLRLSCTVSGRSFSTYAMAWFRRAPGKERELVSAITVGGGSTYYVDSVKGRFTISRENAKNTLYLQMNNLKPEDTAIYICAARDYRRRSYAPEAEQYDYWGQGTQVTVSS
notes: also called hIFNgR1 VHH
B4: DR906 (VHH)
VHH: EVQLVESGGGLVQAGGSLRLSCAASGSTFSTYVMGWFRQAPGKEREFVAAISRSGGTTTYADSVKGRFDISRDNGKNTLFLQMNSLIPEDTAAYYCAARAGPAIGRTANDYHSWGQGTLVTVSS
notes: also called hIFNgR1 VHH
B5: DR908 (VHH)
VHH: EVQLVESGGGLVQAGGSLRVTCAASGRTFTSLAMGWFRQAPGKEREFVAAISRSGGSTDYADSVKGRFFISRDNAKSTLYLQMSSLKPEDTAVYYCAARDYSTLQYYNEYEYSDWGQGTQVTVSS
notes: also called hIFNgR1 VHH
B6: DR905 (VHH)
VHH: EVQLVESGGGLVQAGGSLRLSCVASGRTFTGYAMGWFRQAPGKEREFVAVITWSGATTYYSASVKGRFTLSRDNAKNTVYLQMNSLKSEDTAVYYCAIRIRDGVSPENPNEYGYWGQGTQVTVSS
notes: also called hIFNgR1 VHH
B7: DR910 (VHH)
VHH: EVQLVESGGGLVQTGGSLRLSCAASGRTFSSYAMAWFRQAPGKEREFVAAISILGGSADYEDSVQGRFTISRDNAKNTMYLQMNSLKPEDTAVYYCAARRPAPSDSYWSSTSYAYWGQGTLVTVSS
notes: also called hIFNgR1 VHH
B8: DR925 (VHH)
VHH: EVQLVESGGGLVQAGGSLVLSCAASGRTFSRYAMGWFRQAPGKEREFVAAISIGGGSADYADTVKGRFTISRNNAKNTMYLQMNSLKPEDTAVYYCAARTPRPSSSYFTPQDYEYWGQGTLVTVSS
notes: also called hIFNgR1 VHH
B9: DR923 (VHH)
VHH: QVQLVESGGGLVQAGGSLRLSCAASRRTFMTYAMGWFRQAPGKEREFVAAISWSSGSTYYADSVKGRFTISRDNAKNTMYLQMNSLKPEDTAVYYCTASSIATMYGPNDYAGQGTLVTVSS
notes: also called hIFNgR1 VHH
B10: DR920 (VHH)
VHH: EVQLVESGGGLVQAGGSLRLSCAASGRSFANYAMGWFRQAPGKERETVAAISRGGGSTWYADSVKGRFTISKDNAKNTVYLQMNSLKPEDTAIYYCAARSYSGSYTYSFGEYDYWGQGTQVTVSS
notes: also called hIFNgR1 VHH
B11: DR913 (VHH)
VHH: EVQLVESGGGLVQAGGFLRLSCAASGRTFSSYAMGWFRQIPGKERELVAAISSWSGGSTYYADSVKGRFTISRDNAKNTVYLQMLSLKPEDTAVYYCTTGDYYSDYFKYDNENWGKGTQVTVSS
notes: also called hIFNgR1 VHH
B12: DR916 (VHH)
VHH: EVQLVESGGGLVQPGGSLRLSCTASGRPRTTYAMGWFRQAPGKEREIVAAISKAGGSTYVADSAKGRFAISKDNAKNTVYLQMNSLKPEDTAVYYCAARAGFAAQIFEYDYWGQGTLVTVSS
notes: also called hIFNgR1 VHH
B13: DR926 (VHH)
VHH: EVQLVESGGGLVQAGGSLRLSCAASGRTFSRYAMNWFRQAPGKEREFVAAISWSSGNTYVADSVKGRFTISRDNAKNTMYLQMNNLAPEDTAVYYCAATTIATMSDENTYWGQGTQVTVSS
notes: also called hIFNgR1 VHH
B14: DR924 (VHH)
VHH: QVQLVESGGGLVQAGGSLRLSCTASGRTFSRYAMGWFRQAPGKEREFVATISRSGGTTSYANSVKGRFTISRDNAKNTVYLQMNSLKTEDTAVYNCAARDGPAMGVFGSDYDYWGQGTLVTVSS
notes: also called hIFNgR1 VHH
B15: DR912 (VHH)
VHH: EVQLVESGGGLVQAGGSLRLSCAPSGRTFSSYAMAWFRQPPGKEREFVAAITVSGASTYYADSVKGRFTISRDNAKNSMYLQMNSLKPEDTAVYYCAAGGPGTIFPDYDYWGQGTQVTVSS
notes: also called hIFNgR1 VHH
B16: DR917 (VHH)
VHH: EVQLVESGGGLVQAGGSLRLSCAASGRTFSGYNMGWFRQAPGKEREFVAAIAWAGSRTYYTDSVKGRFTISRDNAKNTMYLQMNTLRPEDTAVYYCAAHDETYYRLDRVDLYTHWGQGTLVTVSS
notes: also called hIFNgR1 VHH
B17: DR918 (VHH)
VHH: EVQLVESGGGLVQAGGSLRLSCATSGLTDSTYGMAWFRQAPGKEREFVAAISRAGGSADHADSVKGRFTVSRDNAKKMVYLQMNSLKPEDTAVYYCASGRSYSSPYDYFNALAYSYWGQGTQVTVSS
notes: also called hIFNgR1 VHH
B18: DR903 (VHH)
VHH: EVQLVESGGGLVQAGGSLRLSCAASGRIASDYTRGWFRQAPGKEREFVAAIIRSVGDSYYADSVKGRFTISIDNAENTVYLQMNSLKPEDTAVYYCAVGGHLYYGSRWRYPASYDYWGQGTQVTVSS
notes: also called hIFNgR1 VHH
B19: DR922 (VHH)
VHH: QVQLVESGGGLVRAGGSLRLSCAASGSITSINTMGWFRQAPGKQRELVAAITSGGSTNYADSVKGRFTISRDNARNTVYLQMYSLKPEDTAVYYCEADSMYFRGQGTQVTVSS
notes: also called hIFNgR1 VHH
B20: DR915 (VHH)
VHH: EVQLVESGGGLVQAGGSLRLSCAAARRTLHNFAMAWFRQAPGKEREFVAAISKGGGSADYADSVKGRFTISRDNAKNTVYLQMNSLKPEDTAVYYCAANDLASYSDSSYTSTSRYDYWGQGTQVTVSS
notes: also called hIFNgR1 VHH
B21: DR914 (VHH)
VHH: EVQLVESGGGLVQAGGSLTLSCVASGRAFSNSAMAWFRQTPGKEREFVSAISRGGGSTDYADSVKGRFTISKDNAKNTVYLQMNSLKPEDTAVYYCAMRYYSGRYYESLEYDYWGQGTQVTVSS
notes: also called hIFNgR1 VHH
B22: DR904 (VHH)
VHH: EVQLVESGGGLVQAGGSLRLSCEASESILSINTMGWFRQAPGKQRELVAAISSGGSTNYADSVKGRFTISRDNAKNTVYLQMNSLKPEDTAVYYCDADRAYYKGQGTQVTVSS
notes: also called hIFNgR1 VHH
B23: DR921 (VHH)
VHH: QVQLVESGGGLVQAGDSLRLSCAASGRTFTFSTHNMGWFRQAPGKEREFVGGIMWTSRASYADSVKGRFTVSRDNAKNTVYLQMNSLKPEDTAVYYCAAAWYGNSGASYDYWGQGTQVTVSS
notes: also called hIFNgR1 VHH
B24: DR919 (VHH)
VHH: EVQLVESGGGLVQPGGFLRLSCAASRRTLSTYAMGWFRQAPGKEREFVAAISWRSGNTYYADSVKGRFTISRDNAKNTMYLQMNSLKPEDTAVYYCAANEVATMSGPHDHWGQGTLVTVSS
notes: also called hIFNgR1 VHH

biological target: T1, extracellular domain of hIFNgR1; experiment: flow cytometry

Binding result, binds:
B1
B2
B3
B4
B5
B6
B7

biological target: T2, extracellular domain of mIFNgR1; experiment: flow cytometry, cross-reactivity

Binding result, binds:
B8
B9
B1
B10
B2
B11
B3
B4
B12
B13
B14
B15
B16
B17
B18
B5
B19
B6
B7
B20
B21

biological target: T1, extracellular domain of hIFNgR1; experiment: periplasmic extract ELISA on coated antigen
Protocol: Upon completion of the biopanning of Example 3, three 96-well plates of individual phage clones were isolated in order to perform periplasmic extract ELISA (PE-ELISA) on IFNgR1 coated plates to identify positive VHH binders that selectively bound IFNgR1. A 96-well plate was coated with IFNgR1 and PBS under the same conditions. Next, wells were blocked at 37° C. for 1 h. Then, […] was added to each well and incubated for 1 h. Subsequently, 100 μl of anti-tag polyclonal antibody conjugated to HRP was added to each well and incubated at 37° C. for 1 h. Plates were developed with TMB substrate. The reaction was stopped by the addition of H2SO4. Absorbance at 450 nm was read on a microtiter plate reader. Antibodies with absorbance of the antigen-coated well at least threefold greater than PBS-coated control were considered to provide specific binding to IFNgR1. Positive clones were sequenced, and sequences analyzed to identify unique clonotypes

Binding result, binds:
B22
B8
B23
B9
B10
B11
B12
B13
B14
B15
B16
B17
B18
B19
B20
B21
B24
